# Experimental data: the supplement of paper PMC9732359
# ± gives the uncertainty stated by the source.
# Assay: protein stability index of a GFP-peptide fusion (yeast GPS) (PSI 1-4); higher = more stable; sorted into four equal gates, so the index is relative within each strain
# How it was run: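 Tiled yeast protein peptides of 17 residues were each joined downstream of GFP, on plasmids that also express Cherry. The pooled library was maintained in yeast, and mid-log cultures in leucine-free medium were sorted into four equal gates on the GFP/Cherry ratio. Plasmids from every gate were amplified by PCR and sequenced on Illumina, with barcodes linking reads to strains. The protein stability index of a peptide is its gate-number-weighted read frequency summed over the gates.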
Sequence,protein stability index (doa10∆),protein stability index (pdr5∆),protein stability index (san1∆),protein stability index (ubr1∆)
QDKEKIDNLKDTLKENA [ITC1],2.87 ± 0.046,3.07 ± 0.055,3.02 ± 0.043,3.09 ± 0.04
SAIIENAFRKEELLLKD [GAL11],–,1.14 ± 0.16,–,1.18 ± 0.22
GDLKLQVLLDEEYKQLV [RPO21],2.48 ± 0.12,2.94 ± 0.082,2.73 ± 0.11,3.2 ± 0.062
FMEAQGAGIQIIMQADL [FAS2],2.36 ± 0.094,2.33 ± 0.12,2.08 ± 0.24,2.11 ± 0.083
GKGHLVGRLASVVAKQL [RPL16A],1.33 ± 0.057,1.48 ± 0.051,1.33 ± 0.099,1.32 ± 0.05
REPDFWVIRKQRRTNNS [MED6],3.51 ± 0.15,3.29 ± 0.09,2.97 ± 0.097,2.93 ± 0.096
KISLLRPSFQNNRISNA [SWP82],2.46 ± 0.042,2.37 ± 0.046,2.23 ± 0.078,2.27 ± 0.041
TQTVSGTPPMLHQRTHK [DSN1],2.97 ± 0.12,3.11 ± 0.097,2.89 ± 0.16,2.98 ± 0.088
FKHGPMSLINDAMVTRT [SMD2],2.9 ± 0.11,2.43 ± 0.09,2.76 ± 0.093,3.01 ± 0.085
RLIDSMKQYSYLMDSKN [RRI1],2.62 ± 0.21,2.41 ± 0.14,–,2.87 ± 0.18
VFALHKYKPTPLYVMDE [SMC4],2.6 ± 0.081,2.85 ± 0.12,3.09 ± 0.076,3.07 ± 0.056
ETAAMASLALAHVFVGT [RPN1],1.39 ± 0.044,1.58 ± 0.047,1.61 ± 0.098,1.41 ± 0.052
IPSQRGTSTTHGSISPQ [SIR3],2.39 ± 0.033,2.58 ± 0.035,2.37 ± 0.036,2.54 ± 0.026
KTYEPVLNEDDLAFGGE [RPN5],3.27 ± 0.09,3.1 ± 0.089,3.29 ± 0.058,3.51 ± 0.12
SKSENPVLSTIAFLVGL [SWI3],3.01 ± 0.11,2.54 ± 0.085,2.26 ± 0.1,2.43 ± 0.057
LAALNVWYGLSDGEDGH [SSN2],3.19 ± 0.12,3.39 ± 0.11,3.04 ± 0.067,3.12 ± 0.077
LAVTNLLIISCIIFITF [YML031W/NDC1],1.34 ± 0.034,1.53 ± 0.034,1.42 ± 0.061,1.55 ± 0.03
NPVTLNEDSKAFHTAVL [NUT1],2.81 ± 0.057,2.96 ± 0.076,2.82 ± 0.075,2.41 ± 0.059
LAPARVRRRFARGMTSK [RPS15],2.99 ± 0.1,3.17 ± 0.094,3.11 ± 0.096,3.03 ± 0.082
KKCPFTGLVSIRGKILT [RPS11A],1.7 ± 0.058,1.53 ± 0.06,1.47 ± 0.12,1.88 ± 0.055
ASKSKKKFNMGKEFEAR [RPC53],3.33 ± 0.085,3.14 ± 0.12,3.27 ± 0.073,3.4 ± 0.081
VKLWEEDPDQEECSGRR [YGL100W/SEH1],3.18 ± 0.084,3.08 ± 0.081,3.37 ± 0.04,3.37 ± 0.055
GGSGAATFSVSQASSDL [CSL4],3.4 ± 0.08,3.31 ± 0.074,3.43 ± 0.061,3.36 ± 0.06
QKKARTILQHLSEAWRC [PRP8],1.96 ± 0.11,1.8 ± 0.097,2.28 ± 0.12,2.55 ± 0.16
KDFVTMAIEIINDIRDD [YCG1],1.85 ± 0.12,1.7 ± 0.16,2.17 ± 0.2,2.42 ± 0.19
KVSSASAAASESDVAKQ [RPL16B],2.93 ± 0.067,2.79 ± 0.055,2.04 ± 0.09,2.97 ± 0.065
TIWCVCDSYLDADKELS [BRR2],2.39 ± 0.059,2.44 ± 0.07,2.92 ± 0.057,2.75 ± 0.072
